Like-named read-outs stand apart in the source and are kept apart here.
B1: fully reduced HMGB1 (High Mobility Group Box 1) (natural protein)
chain: MGKGDPKKPRGKMSSYAFFVQTCREEHKKKHPDASVNFSEFSKKCSERWKTMSAKEKGKFEDMAKADKARYEREMKTYIPPKGETKKKFKDPNAPKRPPSAFFLFCSEYRPKIKGEHPGLSIGDVAKKLGEMWNNTAADDKQPYEKKAAKLKEKYEKDIAAYRAKGKPDAAKKGVVKAEKSKKKKEEEDDEEDEEDEEEEEEEEDEDEEEDDDDE
modifications: all cysteines reduced

Assays:
[1] = molecular target: soluble RAGE (receptor for advanced glycation end products) (UniProt Q15109); assay: SPR
[2] = molecular target: soluble RAGE (receptor for advanced glycation end products) (UniProt Q15109); assay: SPR; remark: listed apart in the source

Row | Molecule | Kd [1] [µM] | Kd [2] [µM]
1 | nonoxidizable HMGB1 mutant 3S (from UniProt P63159 1-215) (natural protein) | 3.5 | 
2 | B1 |  | 3.5
